Sequences and labels used below:
T1: Bdf1 bromodomain 1 (GST-tagged, WT) (Saccharomyces cerevisiae (strain ATCC …, UniProt P35817))
T1 chain: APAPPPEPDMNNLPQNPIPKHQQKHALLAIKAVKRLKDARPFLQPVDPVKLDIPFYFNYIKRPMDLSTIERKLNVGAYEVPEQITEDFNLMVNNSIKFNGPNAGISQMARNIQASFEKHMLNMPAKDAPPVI

T2: Bdf1 bromodomain 2 (GST-tagged, WT) (Saccharomyces cerevisiae (strain ATCC …, UniProt P35817))
T2 chain: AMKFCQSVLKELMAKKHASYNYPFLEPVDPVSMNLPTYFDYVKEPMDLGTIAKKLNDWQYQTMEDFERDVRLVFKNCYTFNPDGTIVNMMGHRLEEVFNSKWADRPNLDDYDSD

B1: H3 16-35 (peptide)
chain: PRKQLATKAA[Arg(Me2a)]K[pS]APATGG
B2: H4 1-19 (peptide)
chain: SGRGKGGKGLGKGGAKRHR
modifications: S G R G Kac G G Kac G L G Kac G G A Kac R H R
B3: H3 1-19 (peptide)
chain: ARTKQTARKSTGGKAPRKQ
modifications: A Rme2s T Kme1 Q T A Rme2a Kme3 S T G G K A P R K Q
B4: H3 1-19 (peptide)
chain: ARTKQTARKSTGGKAPRKQ
modifications: A R T Kme1 Q T A Rme2s Kac S T G G K A P R K Q
B5: H3 1-19 (peptide)
chain: A[Arg(Me2s)]T[Lys(Me3)]QTA[Arg(Me2a)][Lys(Me2)]STGGKAPRKQ
B6: H3 1-19 (peptide)
chain: ARTKQTARKSTGGKAPRKQ
modifications: A R T Kme2 Q T A Rme2s Kme3 S T G G K A P R K Q
B7: H4 1-19 (peptide)
chain: SGRGKGGKGLGKGGAKRHR
modifications: histone peptides carry modifications given inline in the sequence and in columns 4-7 (Kac, Kme1/2/3, Rme2a/s, Cit, pS/pT); N-terminus free or acetylated
B8: H3 1-19 (peptide)
chain: ARTKQTARKSTGGKAPRKQ
modifications: A Rme2a T Kme2 Q T A Rme2a Kme1 S T G G K A P R K Q
B9: H3 16-35 (peptide)
chain: PRKQLATKAAR(Me2a″)K(Me3″)SAPATGG
B10: H3 1-19 (peptide)
chain: A[Arg(Me2s)]T[Lys(Me3)]QTA[Arg(Me2s)][Lys(Me3)]STGGKAPRKQ
B11: H3 1-19 (peptide)
chain: A[Arg(Me2a)]T[Lys(Me)]QTARK(Ac)STGGKAPRKQ
B12: H3 1-19 (peptide)
chain: ARTKQTARKSTGGKAPRKQ
modifications: A R T Kme1 Q T A Rme2s Kme2 S T G G K A P R K Q
B13: H4 1-19 (peptide)
chain: SGRGKGGKGLGKGGAKRHR
modifications: S G R G K G G K G L G Kac G G A Kac R H R
B14: H3 16-35 (peptide)
chain: PRKQLATKAARK(Ac)SAPATGG
B15: H3 16-35 (peptide)
chain: PRKQLATKAA[Arg(Me2a)][Lys(Me2)]SAPATGG
B16: H3 1-19 (peptide)
chain: ARTKQTARKSTGGKAPRKQ
modifications: A R T K Q T A Rme2a K S T G G K A P R K Q
B17: H3 1-19 (peptide)
chain: ARTKQTA[Arg(Me2a)][Lys(Me3)][pS]TGGKAPRKQ
B18: H4 1-19 (peptide)
chain: SGRGKGGKGLGKGGAKRHR
modifications: S G Rme2a G K G G Kac G L G K G G A K R H R
B19: H3 1-19 (peptide)
chain: A[Arg(Me2a)]TKQTARKSTGGKAPRKQ
B20: H3 1-19 (peptide)
chain: A[Arg(Me2s)]T[Lys(Me3)]QTAR[Lys(Me)]STGGKAPRKQ
B21: H3 1-19 (peptide)
chain: A[Arg(Me2s)][pT]KQTARKSTGGKAPRKQ
B22: H3 1-19 (peptide)
chain: ARTKQTARKSTGGKAPRKQ
modifications: A R T Kme2 Q T A R K S T G G K A P R K Q
B23: H3 1-19 (peptide)
chain: ARTKQTARKSTGGKAPRKQ
modifications: A Rme2a T Kme1 Q T A Rme2a Kme3 S T G G K A P R K Q
B24: H4 1-19 (peptide)
chain: SGRGKGGKGLGKGGAKRHR
modifications: S G Rme2a G K G G K G L G K G G A K R H R
B25: H3 1-19 (peptide)
chain: ARTKQTARKSTGGKAPRKQ
modifications: A Rme2a T Kme1 Q T A R Kme2 S T G G K A P R K Q
B26: H3 26-45 (peptide)
chain: RKSAPATGGVKKPHRYRPG
modifications: R K S A P A T G G V Kme2 K P H R Y R P G
B27: H3 1-19 (peptide)
chain: ARTKQTARKSTGGKAPRKQ
modifications: A R T Kac Q T A Rme2s Kme3 S T G G K A P R K Q
B28: H4 1-19 (peptide)
chain: SGRGKGGKGLGKGGAKRHR
modifications: S G Rme2s G Kac G G Kac G L G K G G A K R H R
B29: H3 1-19 (peptide)
chain: AR[pT]K(Me)QTARKSTGGKAPRKQ
B30: H3 1-19 (peptide)
chain: ARTKQTARKSTGGKAPRKQ
modifications: A Rme2s T Kac Q T A Rme2s Kme3 S T G G K A P R K Q
B31: H3 1-19 (peptide)
chain: ART[Lys(Me3)]QTA[Arg(Me2s)][Lys(Me2)]STGGKAPRKQ
B32: H3 1-19 (peptide)
chain: ARTKQTA[Arg(Me2s)][Lys(Me2)]S[pT]GGKAPRKQ
B33: H3 1-19 (peptide)
chain: A[Arg(Me2s)][pT]K(Ac)QTARKSTGGKAPRKQ
B34: H3 16-35 (peptide)
chain: PRKQLATKAAR[Lys(Me3)][pS]APATGG
B35: H4 1-19 (peptide)
chain: SGRGKGGKGLGKGGAKRHR
modifications: S G R G K G G Kac G L G K G G A K R H R
B36: H3 1-19 (peptide)
chain: ARTKQTARKSTGGKAPRKQ
modifications: A R T Kac Q T A Rme2a Kme1 S T G G K A P R K Q
B37: H3 1-19 (peptide)
chain: ARTKQTARKSTGGKAPRKQ
modifications: A Rme2s T Kme3 Q T A Rme2s Kac S T G G K A P R K Q
B38: H3 1-19 (peptide)
chain: ARTKQTARKSTGGKAPRKQ
modifications: A R T K Q T A R Kac S T G G K A P R K Q
B39: H3 1-19 (peptide)
chain: AR[pT][Lys(Me2)]QTARKSTGGKAPRKQ
B40: H3 1-19 (peptide)
chain: ARTKQTARKSTGGKAPRKQ
modifications: A Rme2a T Kme3 Q T A Rme2a Kme1 S T G G K A P R K Q
B41: H3 1-19 (peptide)
chain: ARTKQTARKSTGGKAPRKQ
modifications: A Rme2s pT Kme2 Q T A R K S T G G K A P R K Q
B42: H3 1-19 (peptide)
chain: A[Arg(Me2a)][pT]KQTARKSTGGKAPRKQ
B43: H3 1-19 (peptide)
chain: ARTKQTA[Arg(Me2a)]KS[pT]GGKAPRKQ
B44: H3 1-19 (peptide)
chain: ARTKQTA[Arg(Me2a)]K[pS]TGGKAPRKQ
B45: H3 1-19 (peptide)
chain: ARTKQTAR(Me2a)K(Me)STGGKAPRKQ

The source of these data is PMC5261807 (2017).

Non-standard residues stand in square brackets, D forms with d. Primed or numbered codes have the meaning given here. No end group written: not given here. Me2a″ = asymmetric dimethylarginine (Rme2a); Arg(Me2a) = CN(C)C(=N)NCCC[C@H](N)C(=O)O; Lys(Me3) = C[N+](C)(C)CCCC[C@H](N)C(=O)O; Arg(Me2s) = CN=C(NC)NCCC[C@H](N)C(=O)O; pT = C[C@@H](OP(=O)(O)O)[C@H](N)C(=O)O; Me2a = asymmetric dimethyl (on Arg); Lys(Me2) = CN(C)CCCC[C@H](N)C(=O)O; pS = N[C@@H](COP(=O)(O)O)C(=O)O; Lys(Me) = CNCCCC[C@H](N)C(=O)O; Me3″ = trimethyl lysine (Kme3)

For one experiment, the target named is T1, Bdf1 bromodomain 1 (GST-tagged, WT). The experiment can be described thus: histone peptide array probed with recombinant GST-bromodomain, signal normalised to myc peptide control.
In the case of B1, the binding score was 0.
Still for that read-out and setting: the same measure for B2: 0.561.
Still for that read-out and setting: the same measure for B3: 0.00628; for B4: 0.0247.
Consider B5, for which the binding score was 0.00197.
The same measure, in the same setting: next, B6: 0.00592; B7: 0.00897.
On the same count and under the same terms, next, B8: 0.00897; B9: 0.
Consider B10, for which the binding score turned out to be 0.00789.
Same read-out and setting: next, B11: 0.00699; B12: 0.00879; B13: 0.206.
Still for that read-out and setting: the same measure for B14: 0; for B15: 0.00789.
B16: the binding score amounted to 0.
On the same count and under the same terms, next, B17: 0; B18: 0.0183.
The same measure, in the same setting: the same measure for B19: 0.0095.
For B20, the binding score is 0.
Still for that read-out and setting: the same measure for B21: 0; for B22: 0.
The same measure, in the same setting: the same measure for B23: 0.00197.
Still for that read-out and setting: the same measure for B24: 0.0247; for B25: 0.00538; for B26: 0.
For the molecule B27, the binding score worked out at 0.00287.
Still for that read-out and setting: next, B28: 0.123; B29: 0; B30: 0.00538.
Same read-out and setting: next, B31: 0.00628.
Turning to B32, the binding score was determined as 0.0052.
On the same count and under the same terms, the same measure for B33: 0.0231; for B34: 0.
On the same count and under the same terms, the same measure for B35: 0.0203.
For the molecule B36, the binding score was 0.00323.
The same measure, in the same setting: the same measure for B37: 0.0104; for B38: 0.000897.
Still for that read-out and setting: next, B39: 0.00161; B40: 0; B41: 0.
On the same count and under the same terms, the same measure for B42: 0.

The next experiment deals with T2, Bdf1 bromodomain 2 (GST-tagged, WT). The experiment is described as above.
Consider B1, for which the binding score came to 0.
As to B2, the binding score stood at 0.944.
The same measure, in the same setting: the same measure for B3: 0; for B4: 0.0265.
The same measure, in the same setting: the same measure for B5: 0.
Same read-out and setting: the same measure for B6: 0.
With B43, the binding score worked out at 0.
As for B7, the binding score is 0.
The same measure, in the same setting: the same measure for B8: 0; for B9: 0.00167; for B10: 0.
The same measure, in the same setting: the same measure for B11: 0.00207.
Same read-out and setting: next, B44: 0.
For B12, the binding score was 0.00364.
Same read-out and setting: the same measure for B13: 0.21; for B14: 0.00915; for B15: 0.
Same read-out and setting: next, B16: 0; B17: 0; B18: 0.0345.
The same measure, in the same setting: next, B19: 0.00462; B20: 0.00895; B21: 0.00502.
Take B22: the binding score turned out to be 0.006.
On the same count and under the same terms, next, B23: 0.00285.
Same read-out and setting: the same measure for B24: 0.00305; for B25: 0.0062.
For the molecule B26, the binding score is 0.
Still for that read-out and setting: next, B27: 0.00482; B28: 0.275; B29: 0.00679.
On the same count and under the same terms, next, B30: 0.00521; B31: 0.00561.
The same measure, in the same setting: next, B32: 0.00915; B33: 0.0206; B34: 0.
Regarding B35, the binding score was determined as 0.0237.
Still for that read-out and setting: the same measure for B36: 0.00423; for B37: 0.0385.
For B38, the binding score is 0.00364.
The same measure, in the same setting: next, B39: 0.00895; B40: 0.
As for B41, the binding score turned out to be 0.
The same measure, in the same setting: the same measure for B45: 0.
